The results in this text go back to patent publication US6114132A, “Prosphatase binding assay” (Merck Frosst Canada & Co., priority 1997, dated 2000).

Substitutions are numbered along the chain they refer to. Square brackets hold non-standard residues; d marks the D form. Peptide text beside a SMILES is read from it. * marks the point of attachment. F2Pmp = N[C@@H](Cc1ccc(C(F)(F)P(=O)(O)O)cc1)C(=O)O; Bz = O=C(c1ccccc1)*

Broadly, the inhibition is the change of the read-out against control, counted positive when it falls. One may read the IC50 as the concentration that gives 50% inhibition.

In data set [1] the target is T1, human recombinant GST-PTP1B, non-mutated (Cys215) (Homo sapiens, UniProt P18031).
T1 construct: Human recombinant PTP1B, containing amino acids 1-320; made in house; host or cells: E. coli
T1 sequence (P18031 1-320): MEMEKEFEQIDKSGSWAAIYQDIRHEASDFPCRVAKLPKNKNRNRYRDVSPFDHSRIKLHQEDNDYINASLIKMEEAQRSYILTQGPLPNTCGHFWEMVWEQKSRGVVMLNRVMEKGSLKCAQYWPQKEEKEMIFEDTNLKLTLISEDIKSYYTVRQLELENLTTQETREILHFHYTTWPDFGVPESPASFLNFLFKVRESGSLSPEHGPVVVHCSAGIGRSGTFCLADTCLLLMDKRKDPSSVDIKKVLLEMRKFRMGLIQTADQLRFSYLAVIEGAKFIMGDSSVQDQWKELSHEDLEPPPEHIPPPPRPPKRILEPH
The data set is described as follows: GST-PTP1B SPA binding assay with non-mutated (Cys215) enzyme. The conditions noted are these: read-out: % inhibition, Non-Mutated. How it is done: (§1) ID No. 7) contains active site serine(215).
(§2) IC50 Binding Assay Protocol
(§3) To each well is added the following solutions @ 25° C. in the following chronological order:
(§4) 1. 110 μl of assay buffer.
(§5) 3. 10 μl. of testing compound in DMSO at 10 different concentrations in serial dilution (final DMSO, about 5% v/v) in duplicate @ 25° C.
(§6) 4. 10 μl. of 3.75 μg/ml purified human recombinant GST-PTP1B in enzyme dilution buffer.
(§7) 5. The plate is shaken for 2 minutes.
(§8) 6. 10 μl. of 0.3 μg/ml anti-glutathione S-transferase (anti-GST) rabbit IgG (Molecular Probes) diluted in antibody dilution buffer @ 25° C.
(§9) 7. The plate is shaken for 2 minutes.
(§10) 8. 50 μl. of protein A-PVT SPA beads (Amersham) @ 25° C.
(§11) 9. The plate is shaken for 5 minutes. The binding signal is quantified on a Microbeta 96-well plate counter.
(§12) 10. The non-specific signal is defined as the enzyme-ligand binding in the absence of anti-GST antibody.
(§13) 11. 100% binding activity is defined as the enzyme-ligand binding in the presence of anti-GST antibody, but in the absence of the testing ligands with the non-specific binding subtracted.
(§14) 12. Percentage of inhibition is calculated accordingly.
(§15) 13. IC50 value is approximated from the non-linear regression fit with the 4-parameter/multiple sites equation (described in: "Robust Statistics", New York, Wiley, by P. J. Huber (1981) and reported in nM units.

The target of data set [2] is T2, human recombinant GST-PTP1B, mutated (Ser215) (Homo sapiens, UniProt P18031, C215S).
T2 construct: Human recombinant PTP1B, containing amino acids 1-320; made in house; host or cells: bacteria (E. coli DH5alpha named for the transformation)
T2 sequence (P18031 1-320 C215S): T1 sequence (P18031 1-320) with C215S
Briefly: GST-PTP1B SPA binding assay with mutated enzyme (Ser215). As for the experimental part: as §1, §2, §3, §4, §5, §6, §7, §8, §9, §10, §11, §12, §13, §14, §15

Another data set has as its system PTP1B. The data set is described as follows: inhibition of PTP1B. It counts as biochemical. Particulars: type of constant not stated.
In data set [3] the target is GST-PTP1B, mutated (Ser215): GST-PTP-1B Cys215Ser mutant, human PTP1B amino acids 1-320 fused to GST (human). The data set is described as follows: SPA competition binding assay against tritiated BzN-EJJ-CONH2, GST-PTP1B mutated (Ser215).
Data set [4] deals with GST-PTP1B, non-mutated (Cys215): human recombinant PTP1B amino acids 1-320 fused to GST enzyme (glutathione S-transferase) (human). Briefly: SPA competition binding assay against tritiated BzN-EJJ-CONH2, GST-PTP1B non-mutated (Cys215).
The nature of data set [5]: phosphatase activity of expressed PTP-1B constructs. It counts as biochemical. Particulars: expressed (E. coli for GST-PTP-1B) protein. The text has this: The full length human PTP-1B cDNA sequence (published in J. Chernoff et al., PNAS, USA, supra) cloned into a PET vector was obtained from Dr. Raymond Erickson (Harvard University). The PTP-1B CDNA sequence encoding amino acids 1-320 (Seq. ID No. 1) was amplified by PCR using the full length sequence as template. […] The amplified fragment was cloned into pCR2 (Invitrogen) and sequenced to insure that no sequence errors had been introduced by Taq polymerase during the amplification. This sequence was released from pCR2 by a Bam HI/Eco RI digest and the PTP-1B cDNA fragment ligated into the GST fusion vector pGEX-2T (Pharmacia) that had been digested with the same enzymes. […] This same 1-320 PTP-1B sequence (Seq. ID No. 1) was then cloned into the expression vector pFLAG-2, where FLAG is the octa-peptide […] This was done by releasing the PTP-1B sequence from the pGEX-2T vector by Nco I/Eco RI digest, filling in the ends of this fragment by Klenow and blunt-end ligating into the blunted Eco RI site of pFLAG2. Site-directed mutagenesis was performed on pFLAG2-PTP-1B plasmid using the Chameleon (Stratagene) double-stranded mutagenesis kit from Stratagene, to replaced the active-site Cys-215 with serine. The mutagenesis was carried out essentially as described by the manufacturer and mutants identifed by DNA sequencing. […]

Data set [6] addresses PTP1B tyrosine phosphatase (construct not stated) (human).
In data set [7] the target is T3, GST-PTP1B, non-mutated (Cys215): human recombinant PTP1B amino acids 1-320 fused to GST enzyme (glutathione … (human)).
T3 chain: T1 sequence (P18031 1-320)
Briefly: SPA competition binding assay against tritiated BzN-EJJ-CONH2, GST-PTP1B non-mutated (Cys215). How it is done: 1. 110 μl of assay buffer. 2. […] 3. 10 μl. of testing compound in DMSO at 10 different concentrations in serial dilution (final DMSO, about 5% v/v) in duplicate @ 25° C. 4. 10 μl. of 3.75 μg/ml purified human recombinant GST-PTP1B in enzyme dilution buffer. 5. The plate is shaken for 2 minutes. 6. 10 μl. of 0.3 μg/ml anti-glutathione S-transferase (anti-GST) rabbit IgG (Molecular Probes) diluted in antibody dilution buffer @ 25° C. 7. The plate is shaken for 2 minutes. 8. 50 μl. of protein A-PVT SPA beads (Amersham) @ 25° C. 9. The plate is shaken for 5 minutes. The binding signal is quantified on a Microbeta 96-well plate counter. 10. The non-specific signal is defined as the enzyme-ligand binding in the absence of anti-GST antibody. 11. 100% binding activity is defined as the enzyme-ligand binding in the presence of anti-GST antibody, but in the absence of the testing ligands with the non-specific binding subtracted. 12. Percentage of inhibition is calculated accordingly.

Where [8] appears, read: read-out: % inhibition, Mutated.

In the case of `COc1cc(OC)c(OC)cc1CCN=CCc1ncc[nH]1` [Amine], the inhibition at 2 µM in data set [1] was found to be 67%; in data set [2] (setting [8]), 10%.
Take `NC(=O)[C@H](Cc1ccc(C(F)(F)P(=O)(O)O)cc1)NC(=O)[C@H](Cc1ccc(C(F)(F)P(=O)(O)O)cc1)NC(=O)[C@H](CCC(=O)O)NC(=O)c1ccccc1` [BzN-EJJ-CONH2, N-Benzoyl-L-glutamyl-[4-phosphono(difluoromethyl)]-L-phenylalanyl-[4-phosphono(difluoromethyl)]-L-phenylalanineamide] (Bz-Glu-[F2Pmp]-[F2Pmp]-NH2): the “active inhibitor of PTP1B” value in the data set on PTP1B turned out to be 5 nM. The “binding of substrate analog to mutated enzyme” value in data set [2] (mutated enzyme, truncated, amino acids 1-320) is “high affinity”.
On to `OO` [Hydrogen peroxide], for which the results for the inhibition at 83 µM in data set [1] and in data set [2] (setting [8]) were 90% and 0%, respectively.
Turning to DADE(F2PMP)L hexapeptide, the IC50 in data set [3] amounted to 100 nM; in data set [4] it was 400 nM.

B1: GST-PTP-1B fusion protein: PTP-1B amino acids 1-320 fused to GST, expressed in E. Coli (protein)
chain: T1 sequence (P18031 1-320)
B1: in data set [5], the phosphatase activity entry is “active protein tyrosine phosphatase activity”.

B2: FLAG-PTP-1B Cys215Ser mutant: FLAG-tagged PTP-1B with active-site Cys-215 replaced with serine (Seq. ID No. 7) (protein, UniProt P18031 1-435, looked up, variant C215S)
Tyrosine-protein phosphatase …: MEMEKEFEQIDKSGSWAAIYQDIRHEASDFPCRVAKLPKNKNRNRYRDVSPFDHSRIKLHQEDNDYINASLIKMEEAQRSYILTQGPLPNTCGHFWEMVWEQKSRGVVMLNRVMEKGSLKCAQYWPQKEEKEMIFEDTNLKLTLISEDIKSYYTVRQLELENLTTQETREILHFHYTTWPDFGVPESPASFLNFLFKVRESGSLSPEHGPVVVHSSAGIGRSGTFCLADTCLLLMDKRKDPSSVDIKKVLLEMRKFRMGLIQTADQLRFSYLAVIEGAKFIMGDSSVQDQWKELSHEDLEPPPEHIPPPPRPPKRILEPHNGKCREFFPNHQWVKEETQEDKDCPIKEEKGSPLNAAPYGIESMSQDTEVRSRVVGGSLRGAQAASPAKGEPSLPEKDEDHALSYWKPFLVNMCVATVLTAGAYLCYRFLFNSNT
modifications: FLAG tag
Consider B2, for which the phosphatase activity result in data set [5] was “not to have any phosphatase activity”.
In turn, Bz-Glu-[F2Pmp]-[F2Pmp]-NH2 came in with an inhibitor of PTP1B in data set [6] of 5 nM. Besides, the IC50 was 14 nM in data set [7] and 8 nM in data set [3].
